In US20230173042A1, “METHODS OF TREATMENT WITH ASPARAGINASE” (JAZZ PHARMACEUTICALS IRELAND LTD., priority 2017, published 2023):

B1: Pegcrisantaspase: mPEG-r-crisantaspase conjugate: Erwinia chrysanthemi L-asparaginase conjugated to polyethylene glycol, prepared as set forth in U.S. Pat. No. 9,920,311 (conjugate, UniProt P06608 22-348, looked up)
L-asparaginase: ADKLPNIVILATGGTIAGSAATGTQTTGYKAGALGVDTLINAVPEVKKLANVKGEQFSNMASENMTGDVVLKLSQRVNELLARDDVDGVVITHGTDTVEESAYFLHLTVKSDKPVVFVAAMRPATAISADGPMNLLEAVRVAGDKQSRGRGVMVVLNDRIGSARYITKTNASTLDTFKANEEGYLGVIIGNRIYYQNRIDKLHTTRSVFDVRGLTSLPKVDILYGYQDDPEYLYDAAIQHGVKGIVYAGMGAGSVSVRGIAGMRKAMEKGVVVIRSTRTGNGIVPPDEELPGLVSDSLNPAHARILLMLALTRTSDPKVIQEYFHTY
modifications: mPEG conjugate
B2: Erwinia L-asparaginase: L-asparaginase protein from Erwinia chrysanthemi, named crisantaspase, marketed as Erwinase (protein, UniProt P06608 22-348, looked up)
L-asparaginase: B1 L-asparaginase
B3: Oncaspar: E. coli L-asparaginase modified at multiple lysine residues using 5 kDa mPEG-succinimidyl succinate (conjugate, UniProt P00805 23-348, looked up)
L-asparaginase 2: LPNITILATGGTIAGGGDSATKSNYTVGKVGVENLVNAVPQLKDIANVKGEQVVNIGSQDMNDNVWLTLAKKINTDCDKTDGFVITHGTDTMEETAYFLDLTVKCDKPVVMVGAMRPSTSMSADGPFNLYNAVVTAADKASANRGVLVVMNDTVLDGRDVTKTNTTDVATFKSVNYGPLGYIHNGKIDYQRTPARKHTSDTPFDVSKLNELPKVGIVYNYANASDLPAKALVDAGYDGIVSAGVGNGNLYKSVFDTLATAAKTGTAVVRSSRVPTGATTQDAEVDDAKYGFVASGTLNPQKARVLLQLALTQTKDPQQIQQIFNQY
modifications: 5 kDa mPEG-succinimidyl succinate on lysines
notes: E. coli L-asparaginase modified at multiple lysine residues using 5 kDa mPEG-succinimidyl succinate

Key:
[1] = In vivo test of mPEG-r-crisantaspase with cytarabine and daunorubicin (tolerability, body weight); conditions: mice; PegC 5 & 50 IU/kg as single agent and with cytarabine 50 mg/kg and daunorubicin 1 mg/kg
MV-4-11 = experiment: Oncolines cell proliferation assay (ATP luminescence); assay type: cell-based; conditions: MV-4-11, biphenotypic B myelomonocytic leukemia
Protocol: (§1) Cell preparation. All cell lines have been licensed from the American Type Culture Collection (ATCC) Manassas, Va. (US). Master and Working Cell banks (MCB and WCB) were prepared by subculturing in ATCC-recommended media and freezing according to ATCC recommended protocols (www.atcc.org).
(§2) Compound preparation. Test compounds were prepared as stock solutions in DMSO or aqueous buffers as appropriate and serially diluted to obtain a dilution series.
(§3) Cell proliferation assay. Cell proliferation was assessed using a commercially available luminescence assay using ATP as the endpoint.
(§4) Controls. t=0 signal. On a parallel plate, 45 μl cells were dispensed and incubated in a humidified atmosphere of 5% CO2 at 37° C. After 24 hours 5 μl DMSO-containing Hepes buffer and 25 μl ATPlite 1Step™ solution were mixed, and luminescence measured after 10 minute incubation (=luminescencet=0).
(§5) Reference compound. The IC50 of the reference compound doxorubicin is measured on a separate plate. The IC50 is trended. If the IC50 is out of specification (0.32-3.16 times deviating from historic average) the assay is invalidated.
(§6) Cell growth control. The cellular doubling times of all cell lines are calculated from the t=0 hours and t=end growth signals of the untreated cells. If the doubling time is out of specification (0.5-2.0 times deviating from historic average) the assay is invalidated.
(§7) Maximum signals. For each cell line, the maximum luminescence was recorded after incubation until t=end without compound in the presence of 0.4% DMSO (=luminescenceuntreated,t=end).
(§8) IC50 were calculated by non-linear regression using IDBS XLfit. The percentage growth after incubation until t=end (%-growth) was calculated as follows: 100%×(luminescencet=end/luminescenceuntreated,t=end). This was fitted to the ^10log compound concentration (conc) by a 4-parameter logistics curve: %-growth=bottom+(top−bottom)/(1+10^(logIC50-conc)*hill)) where hill is the Hill-coefficient, and bottom and top the asymptotic minimum and maximum cell growth that the compound allows in that assay.
(§9) NCI60 parameters. The LD50, the concentration at which 50% of cells die, is the concentration where luminescencet=end=½×luminescencet=0h. […] This is concentration associated with the signal: ((luminescenceuntreated,t=end−luminescencet=0)/2)+luminescencet=0.
(§10) Curve fitting. […] The hill was fixed on −6 when the software calculated a lower value. […] Incidentally, when technical failures were likely, concentration points were knocked out.
(§11) The special volcano plot of FIG. 9 relates compound sensitivity (as measured by ^10logIC50) to the presence of cancer hotspot mutations. […] The hotspot mutations were derived from statistical analyses of the recurrence patterns of mutations and copy number alterations in patients through separate studies. Axes and statistical analyses are identical to the volcano plot of FIG. 8. The cutoff p-level for significance is 0.32. […] Effect20 For determination of the effect of the compound on the activity of other anti-cancer agents in SynergyScreen™ experiments, a low, fixed concentration is used, corresponding to the concentration at which cell growth is inhibited by 20%.

HT-1080 = experiment: as above; assay type: cell-based; conditions: HT-1080, fibrosarcoma
Protocol: as §1, §2, §3, §4, §5, §6, §7, §8, §9, §10, §11

MOLT-4 = experiment: as above; assay type: cell-based; conditions: MOLT-4, acute lymphoblastic leukemia (ALL)
Protocol: as §1, §2, §3, §4, §5, §6, §7, §8, §9, §10, §11

THP-1 = experiment: as above; assay type: cell-based; conditions: THP-1, acute monocytic leukemia
Protocol: as §1, §2, §3, §4, §5, §6, §7, §8, §9, §10, §11

U-87-MG = experiment: as above; assay type: cell-based; conditions: glioblastoma, brain
Protocol: as §1, §2, §3, §4, §5, §6, §7, §8, §9, §10, §11

DB = experiment: as above; assay type: cell-based; conditions: large cell lymphoma, B lymphoblast
Protocol: as §1, §2, §3, §4, §5, §6, §7, §8, §9, §10, §11

HL-60 = experiment: as above; assay type: cell-based; conditions: HL-60, acute promyelocytic leukemia
Protocol: as §1, §2, §3, §4, §5, §6, §7, §8, §9, §10, §11

HT = experiment: as above; assay type: cell-based; conditions: diffuse mixed lymphoma, B lymphoblast
Protocol: as §1, §2, §3, §4, §5, §6, §7, §8, §9, §10, §11

KG-1 = experiment: as above; assay type: cell-based; conditions: KG-1, acute myelogenous leukemia (AML)
Protocol: as §1, §2, §3, §4, §5, §6, §7, §8, §9, §10, §11

RL = experiment: as above; assay type: cell-based; conditions: non-Hodgkin's lymphoma, B lymphoblast
Protocol: as §1, §2, §3, §4, §5, §6, §7, §8, §9, §10, §11

HL-60 cell line = experiment: Combination (synergy) cell proliferation assay with pegcrisantaspase; assay type: cell-based
Protocol: Plate preparation. The stocks of the mixtures and single agents were diluted in DMSO or 0.9% sodium chloride to generate a 7-points dose-response series. After further 31.6 times dilution in 20 mM sterile Hepes buffer pH 7.4 (reference compounds) or medium (pegcrisantaspase), 5 μl of pegcrisantaspase solution, and 5 μl of reference compound was added to 40 μl pre-plated cells in duplicate in a 384-well assay plate. The final DMSO concentration during incubation was 0.4% in all wells.
Cell proliferation assay. A cell assay stock was thawed and diluted in appropriate medium and dispensed in a 384-well plate, depending on the cell line used, at a concentration of 800-3200 cells per well in […]: i.e., DB: 800 cells per well; RL: 1000 cells per well; MV-4-11: 1600 cells per well; KG-1, HL-60 and HT 3200 cells per well. For each used cell line the cell density was optimized previously. The margins of the plate were filled with phosphate-buffered saline. Plated cells were incubated in a humidified atmosphere of 5% CO2 at 37° C. After 24 hours, 5 μl of pegcrisantaspase solution, and 5 μl of reference compound was added, and plates were further incubated for another 72 hours. After 72 hours, plates were cooled in 30 minutes to room temperature and 25 μl of ATPlite 1Step™ (PerkinElmer) solution was added to each well, and subsequently shaken for 2 minutes. After 5 minutes of incubation in the dark at room temperature, the luminescence was recorded on an Envision multimode reader (PerkinElmer).
Controls: t=0 signal. On a parallel plate, 40 μl cells were dispensed in quadruplicate and incubated in a humidified atmosphere of 5% CO2 at 37° C. After 24 hours, plates were cooled to room temperature in 30 minutes. 5 μl DMSO-containing Hepes buffer, 5 μl 0.9% sodium chloride-containing medium and 25 μl ATPlite 1Step™ solution were added and subsequently mixed for 2 minutes. Luminescence was measured after 10 minute incubation (=luminescencet=0) in the dark.
as §6
Maximum signals. On each 384-well plate, the maximum luminescence was recorded after incubation for 72 hours without compound in the presence of 0.4% DMSO. All equivalent wells (usually 14) were averaged. This average is defined as: luminescenceuntreated,t=72h. Dose response curves. Accurate single agent IC50s are needed for combination analysis. For each single agent its dose-response signal was fitted by a 4-parameter logistics curve using XL-fit 5 (IDBS software):
luminescence=bottom+(top-bottom)/(1+10^(logIC50−log[cpd])−hill))
[cpd] is the compound concentration tested. hill is the Hill-coefficient. Bottom and top are the asymptotic minimum and maximum of the curve. Combination Index (CI) determination. The CI is one of the most widely used quantitative indications of synergy. The CI evaluates the concentrations needed to achieve a fixed-effect. A CI of below 1 indicates synergy.
CI is defined for a certain percentage cell viability (V), which is the signal related to a non-exposed control: V=100%×luminescencetreated,t=72h/luminescenceuntreated,t=72h. The concentrations of the two compounds cpd1 and cpd2 needed to reach a certain percentage cell viability V in combination are then compared to the concentrations needed as single agents:
IC50,cpd1 would signify the IC50 of cpd1 alone. The CI is labelled by %-effect, to follow conventions, so CI75 signifies the CI at 25% viability Curve shift analysis. This analysis provides a visual confirmation of synergy^1. The concentrations of the mixtures of compounds 1 and 2 (cpd1 and cpd2), and the single agents, were expressed in terms of IC50 equivalents (in ‘units’ of IC50):
The dose-response signal was fitted by a 4-parameter logistics curve using XL-fit 5 (IDBS software)

[2] = in vivo; cited from earlier work
[3] = children who received the drug; cited from earlier work
[4] = PEGylated enzyme relative to unmodified enzyme; cited from earlier work
[5] = pegcrisantaspase with ABT-747, average Combination Index of the mixtures at ED50, HL-60

| Molecule | tolerability [1] | Effect20 (concentration at which cell growth is inhibited by 20%) (MV-4-11) [IU/mL] | Effect20 (concentration at which cell growth is inhibited by 20%) (HT-1080) [IU/mL] | Effect20 (concentration at which cell growth is inhibited by 20%) (MOLT-4) [IU/mL] | Effect20 (concentration at which cell growth is inhibited by 20%) (THP-1) [IU/mL] | Effect20 (concentration at which cell growth is inhibited by 20%) (U-87-MG) [IU/mL] | Effect20 (concentration at which cell growth is inhibited by 20%) (DB) [IU/mL] | Effect20 (concentration at which cell growth is inhibited by 20%) (HL-60) [IU/mL] | Effect20 (concentration at which cell growth is inhibited by 20%) (HT) [IU/mL] | Effect20 (concentration at which cell growth is inhibited by 20%) (KG-1) [IU/mL] | Effect20 (concentration at which cell growth is inhibited by 20%) (RL) [IU/mL] | Curve shift (HL-60 cell line; pegcrisantaspase with ABT-747, HL-60, leftward shift indicates synergy) | Average CI value 1:1, 1:2 and 2:1 (HL-60 cell line; [5]) | Average CI value 1:1, 1:5 and 5:1 (HL-60 cell line; [5]) | Average CI value 1:1, 1:10 and 10:1 (HL-60 cell line; [5]) | IC50 (IU/mL) (HL-60 cell line; single agent, HL-60, 72 hours) | maximal effect (HL-60 cell line; single agents, dose-response curves of FIG. 3, HL-60) [%] | patients antibody-positive [2] | children who had an allergic reaction [3] | in vitro activity compared to the unmodified L-asparaginase [4] |
| --- | --- | --- | --- | --- | --- | --- | --- | --- | --- | --- | --- | --- | --- | --- | --- | --- | --- | --- | --- | --- |
| B1 | well tolerated | 0.0088 | 0.013 | 0.00019 | 0.012 | 0.057 | 0.059 | 0.00028 | 0.033 | 0.00018 | 0.037 | yes | 0.26 | 0.29 | 0.33 | 0.070 | 88 |  |  |  |
| B2 |  |  |  |  |  |  |  |  |  |  |  |  |  |  |  |  |  | 30-50% |  |  |
| B3 |  | 0.26 | 0.00025 | 0.00019 | 0.31 | 0.4 | 0.47 | 0.0003 | 0.28 | 0.0001 | 0.37 |  |  |  |  |  |  |  | 30-41% | approximately 50% |
